Laboratory results reported in US20110318339A1 (FABRUS, published 2011).
Residue numbers refer to the chain shown, from its start. Names may count otherwise.

Columns and labels:
[1] = biological target: T1, recombinant human DLL4 (Cat# 1506-D4/CF, R&D Systems) (human, UniProt Q9NR61 27-529); assay: ELISA, hDLL4 coated 0.5 ng/ul, Fab 0.08 nM
T1 construct: Bought protein; also called hDLL4; h DLL4
Procedure: (§1) The plate was blocked by adding 1% BSA in Tris-buffered Saline Tween (TBST) and incubating for 1 hour at room temperature followed by washing 2 times with 150 μl TBST. A Fab antibody was serially diluted in 1% BSA in PBS. A 50 μl aliquot of each serial dilution was added, in triplicate, to each well and the plate was incubated for 1 hour at room temperature followed by washing 2 times with TBST. 50 μl of either goat anti-human kappa HRP conjugated secondary antibody (Cat # A7164-1 mL, Sigma-Aldrich) or goat anti-human lambda HRP conjugated secondary antibody (Cat # L1645-1 ml, Sigma-Aldrich), diluted 1:1000 in 1% BSA in PBS, was added to each well and the plate was incubated for 30 minutes at room temperature followed by washing 3 times with 200 μl TBST. Finally, 50 μl TMB one-component reagent (Cat # TMBW-1000-01, BioFax) was added and allowed to develop for 2 minutes at room temperature. The reaction was immediately halted by the addition of 50 μl 0.5M H₂SO₄ and the absorbance at 450 nm was measured using an ELISA plate reader.

[2] = biological target: T1, recombinant human DLL4 (Cat# …); assay: ELISA, hDLL4 coated 0.5 ng/ul, Fab 0.16 nM
Procedure: (§2) In this example, an ELISA binding assay was used to assess the dose-dependent binding of Fab antibodies to recombinant human DLL4 and recombinant mouse DLL4.
as §1

[3] = biological target: T1, recombinant human DLL4 (Cat# …); assay: ELISA, hDLL4 coated 0.5 ng/ul, Fab 0.31 nM
Procedure: as §2, §1

[4] = biological target: T1, recombinant human DLL4 (Cat# …); assay: ELISA, hDLL4 coated 0.5 ng/ul, Fab 0.63 nM
Procedure: as §1

[5] = biological target: T1, recombinant human DLL4 (Cat# …); assay: ELISA, hDLL4 coated 0.5 ng/ul, Fab 1.25 nM
Procedure: as §2, §1

[6] = biological target: T1, recombinant human DLL4 (Cat# …); assay: ELISA, hDLL4 coated 0.5 ng/ul, Fab 2.50 nM
Procedure: as §2, §1

[7] = biological target: T1, recombinant human DLL4 (Cat# …); assay: ELISA, hDLL4 coated 0.5 ng/ul, Fab 5.00 nM
Procedure: as §2, §1

[8] = biological target: T2, recombinant mouse DLL4 (Cat# 1389-D4-050/CF, R&D Systems) (mouse, UniProt Q9JI71 28-525); assay: ELISA, mDLL4 coated 0.5 ng/ul, Fab 0.08 nM
T2 construct: Bought protein; also called mDLL4
Procedure: as §1

[9] = biological target: T2, recombinant mouse DLL4 (Cat# …); assay: ELISA, mDLL4 coated 0.5 ng/ul, Fab 0.16 nM
Procedure: as §1

[10] = biological target: T2, recombinant mouse DLL4 (Cat# …); assay: ELISA, mDLL4 coated 0.5 ng/ul, Fab 0.31 nM
Procedure: as §1

[11] = biological target: T2, recombinant mouse DLL4 (Cat# …); assay: ELISA, mDLL4 coated 0.5 ng/ul, Fab 0.63 nM
Procedure: as §1

[12] = biological target: T2, recombinant mouse DLL4 (Cat# …); assay: ELISA, mDLL4 coated 0.5 ng/ul, Fab 1.25 nM
Procedure: as §2, §1

[13] = biological target: T2, recombinant mouse DLL4 (Cat# …); assay: ELISA, mDLL4 coated 0.5 ng/ul, Fab 2.50 nM
Procedure: as §2, §1

[14] = biological target: T2, recombinant mouse DLL4 (Cat# …); assay: ELISA, mDLL4 coated 0.5 ng/ul, Fab 5.00 nM
Procedure: as §2, §1

[15] = biological target: T1, recombinant human DLL4 (Cat# …); assay: ELISA, hDLL4 coated 0.5 ng/ul, Fab 10.00 nM
Procedure: as §2, §1

[16] = biological target: T2, recombinant mouse DLL4 (Cat# …); assay: ELISA, mDLL4 coated 0.5 ng/ul, Fab 10.00 nM
Procedure: as §1

[17] = biological target: T3, full-length human DLL4 expressed on the surface of CHO cells (human, UniProt Q9NR61 26-685); assay: flow cytometry competition, 250 nM biotinylated Notch-Fc as competitor, Fab 2 nM
T3 construct: also called CHO-DLL4; DLL4-expressing CHO cells
Procedure: (§3) Streptavidin-PE was used as a detection molecule.
(§4) Fab was 5-fold serially diluted in 2% BSA/PBS from a starting concentration of 50 nM. […] PE-labeled streptavidin (Cat# 21627, Pierce-Thermo Scientific) was then added to a final dilution of 1:5 followed by incubation for 10 minutes at room temperature. The cells were then washed twice in 2% BSA/PBS and analyzed by flow cytometry on a BD FACSAria.

[18] = biological target: T3, full-length human DLL4 expressed on the …; assay: flow cytometry competition, 250 nM biotinylated Notch-Fc as competitor, Fab 10 nM
Procedure: as §3, §4

[19] = biological target: T3, full-length human DLL4 expressed on the …; assay: flow cytometry competition, 250 nM biotinylated Notch-Fc as competitor, Fab 50 nM
Procedure: as §3, §4

[20] = biological target: T4, Recombinant Human DLL4 (Cat# 1506-D4/CF, R&D Systems) (human, UniProt Q9NR61 27-529); assay: ELISA, DLL4 coated
T4 construct: Bought protein; also called rHuman DLL4; hDLL4

[21] = biological target: T4, Recombinant Human DLL4 (Cat# …); assay: ELISA, hDLL4 coated, estimated from dose-dependent binding
[22] = biological target: T1, recombinant human DLL4 (Cat# …); assay: ELISA, hDLL4 coated 0.5 ng/ul, Fab 0.78 nM
Procedure: as §1

[23] = biological target: T1, recombinant human DLL4 (Cat# …); assay: ELISA, hDLL4 coated 0.5 ng/ul, Fab 1.56 nM
Procedure: as §1

[24] = biological target: T1, recombinant human DLL4 (Cat# …); assay: ELISA, hDLL4 coated 0.5 ng/ul, Fab 3.13 nM
Procedure: as §1

[25] = biological target: T1, recombinant human DLL4 (Cat# …); assay: ELISA, hDLL4 coated 0.5 ng/ul, Fab 6.25 nM
Procedure: as §1

[26] = biological target: T1, recombinant human DLL4 (Cat# …); assay: ELISA, hDLL4 coated 0.5 ng/ul, Fab 12.50 nM
Procedure: as §1

[27] = biological target: T1, recombinant human DLL4 (Cat# …); assay: ELISA, hDLL4 coated 0.5 ng/ul, Fab 25.00 nM
Procedure: as §1

[28] = biological target: T1, recombinant human DLL4 (Cat# …); assay: ELISA, hDLL4 coated 0.5 ng/ul, Fab 50.00 nM
Procedure: as §1

[29] = biological target: T1, recombinant human DLL4 (Cat# …); assay: ELISA, hDLL4 coated 0.5 ng/ul, Fab 100.00 nM
Procedure: as §1

T2 sequence (Q9JI71 28-525 limits assumed): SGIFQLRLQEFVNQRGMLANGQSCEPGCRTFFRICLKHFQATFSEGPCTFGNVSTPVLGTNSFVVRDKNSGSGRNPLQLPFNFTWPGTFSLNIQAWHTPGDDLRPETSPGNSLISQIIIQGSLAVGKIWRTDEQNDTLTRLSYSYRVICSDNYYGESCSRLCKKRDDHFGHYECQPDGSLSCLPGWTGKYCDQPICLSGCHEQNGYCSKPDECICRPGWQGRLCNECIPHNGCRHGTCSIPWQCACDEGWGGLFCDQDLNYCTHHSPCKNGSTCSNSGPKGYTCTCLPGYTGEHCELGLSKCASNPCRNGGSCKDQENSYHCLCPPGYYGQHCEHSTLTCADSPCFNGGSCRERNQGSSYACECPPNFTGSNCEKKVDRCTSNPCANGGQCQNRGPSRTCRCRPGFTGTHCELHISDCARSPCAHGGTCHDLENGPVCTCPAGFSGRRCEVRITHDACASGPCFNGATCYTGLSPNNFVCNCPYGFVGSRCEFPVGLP

B1: Fab VH1-46_IGHD6-6*01_IGHJ1*01 S102A/S103P/S104F/H111F I51V/N52L/S54T/G56H (H:APFF VLTH) & L6_IGKJ1*01 S28N/S30D/S31H S52L/A55S (L:NDH LS) (Fab, V domains shown)
VH: QVQLVQSGAEVKKPGASVKVSCKASGYTFTSYYMHWVRQAPGQGLEWMGIVLPTGHSTSYAQKFQGRVTMTRDTSTSTVYMELSSLRSEDTAVYYCAREEYAPFSAEYFQFWGQGTLVTVSS
VL: EIVLTQSPATLSLSPGERATLSCRASQNVDHYLAWYQQKPGQAPRLLIYDALNRSTGIPARFSGSGSGTDFTLTISSLEPEDFAVYYCQQRSNWPPWTFGQGTKVEIKR
notes: Tested as Fab from E. coli (Plasmid A: CH1, His6, Flag; Plasmid C: CL kappa); also called H:APFF VLTH & L:NDH LS; APFF VLTH / NDH LS
ELISA absorbance at 450 nm [1]: 0.259 A450 | ELISA absorbance at 450 nm [2]: 0.593 A450 | ELISA absorbance at 450 nm [3]: 0.85 A450 | ELISA absorbance at 450 nm [4]: 1.4 A450 | ELISA absorbance at 450 nm [5]: 1.65 A450 | ELISA absorbance at 450 nm [6]: 1.96 A450 | ELISA absorbance at 450 nm [7]: 2.06 A450 | ELISA absorbance at 450 nm [8]: 0.078 A450 | ELISA absorbance at 450 nm [9]: 0.142 A450 | ELISA absorbance at 450 nm [10]: 0.205 A450 | ELISA absorbance at 450 nm [11]: 0.404 A450 | ELISA absorbance at 450 nm [12]: 0.604 A450 | ELISA absorbance at 450 nm [13]: 0.983 A450 | ELISA absorbance at 450 nm [14]: 1.28 A450 | ELISA absorbance at 450 nm [15]: 2.25 A450 | ELISA absorbance at 450 nm [16]: 1.55 A450 | signal of Notch-Fc bound to CHO-DLL4 (streptavidin-PE) [17]: 117 | signal of Notch-Fc bound to CHO-DLL4 (streptavidin-PE) [18]: 30 | signal of Notch-Fc bound to CHO-DLL4 (streptavidin-PE) [19]: 30

B2: Fab H:APFF VLTH & L:NDH (Fab, V domains shown)
VH: B1 VH
VL: B1 VL with L52S, S55A
notes: Fab, kappa light chain
fold increased binding affinity against the antibody mutants with heavy chain H:APFF ALTH [20]: ~10 fold | Kd [21]: ~1 nM

B3: Fab VH5-51_IGHD5-18*01>3_IGHJ4*01 G100K/G104T G24T/S28R/G35V (H:KT TRV) & V3-4_IGLJ1*01 (Fab, V domains shown)
VH: EVQLVQSGAEVKKPGESLKISCKTSGYRFTSYWIVWVRQMPGKGLEWMGIIYPGDSDTRYSPSFQGQVTISADKSISTAYLQWSSLKASDTAMYYCARRKYSYTYDYFDYWGQGTLVTVSS
VL: QTVVTQEPSFSVSPGGTVTLTCGLSSGSVSTSYYPSWYQQTPGQAPRTLIYSTNTRSSGVPDRFSGSILGNKAALTITGAQADDESDYYCVLYMGSGISYVFGTGTKVTVL
notes: Tested as Fab from E. coli (Plasmid A: CH1, His6, Flag; Plasmid E: CL lambda); also called H:KT TRV & L:wt
ELISA absorbance at 450 nm [22]: 0.143 A450 | ELISA absorbance at 450 nm [23]: 0.183 A450 | ELISA absorbance at 450 nm [24]: 0.187 A450 | ELISA absorbance at 450 nm [25]: 0.31 A450 | ELISA absorbance at 450 nm [26]: 0.389 A450 | ELISA absorbance at 450 nm [27]: 0.6 A450 | ELISA absorbance at 450 nm [28]: 0.976 A450 | ELISA absorbance at 450 nm [29]: 1.45 A450 | signal of Notch-Fc bound to CHO-DLL4 (streptavidin-PE) [17]: 448 | signal of Notch-Fc bound to CHO-DLL4 (streptavidin-PE) [18]: 244 | signal of Notch-Fc bound to CHO-DLL4 (streptavidin-PE) [19]: 141

B4: Fab VH5-51_IGHD5-18*01>3_IGHJ4*01 H:KT TRV & V3-4_IGLJ1*01 (Fab, V domains shown)
VH: B3 VH
VL: B3 VL
notes: Fab, lambda light chain; also called H:KT TRV & L:wt; G100K/G104T G24T/S28R/G35V
Kd [21]: ~50 nM
